Fewer inactive variants are shown than the library holds.
B1: TPR 5TU (parent)
chain: GGAUCUUCUCGAUCUAACAAAAAAGACAAAUCUGCCACAAAGCUUGAGAGCAUCUUCGGAUGCAGAGGCGGCAGCCUUCGGUGGCGCGAUAGCGCCAACGUUCUCAACUAUGACACGCAAAACGCGUGCUCCGUUGAAUGGAGUUUAUCAUG

Variants of: B1
Assay: polymerase ribozyme fitness, log enrichment relative to wild type (log ratio); higher = more active; in vitro selection for triplet polymerase activity
Method in brief: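 Input and output libraries were sequenced on Illumina after a single in vitro selection round, run in triplicate on PCR-built, transcribed mutant libraries of each subunit of a heterodimeric triplet polymerase ribozyme. Selection annealed libraries to a biotinylated primer, the partner subunit and triplets, incubated them frozen at −7 °C, then gel-excised extended constructs for streptavidin-bead capture and RT-PCR. Genotypes with ≥10 input reads and ≥1 read per output were kept. Fitness is the logarithm, taken in base 2, of genotype enrichment divided by wild-type enrichment, using inverse-variance-weighted replicate averages.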

Variant	polymerase ribozyme fitness (log ratio)
G25U C99U A119C A120G	-3.26
G25C A41C U55A U61A C116U U144A	≤ -4.2
A26U C32G U45C G50C U53G G84A C99U A137G	≤ -4.2
A26U C75A U82G G92U G100A A107U U144A	≤ -4.2
A26G A40C C63U G80U G92A G126U A142U	≤ -4.2
A26G A52C G59C A64C	≤ -4.2
G25C G88U G124A G128U U135C	≤ -4.2
G25U C32U C36A C85U C114U C129U U134C	≤ -4.2
A26U C51U A64U C125U	≤ -4.2
A26U A49G C57A G88U G92A G100A A106U C125U	≤ -4.2
A26U C103A C114U	≤ -4.2
A26C A41C A49C G62C A138G	≤ -4.2
A26C C76A	-3.75
A26C G83A G126A A137G	≤ -4.2
G25U G81A G94U A120U G141C	-3.76
G25U G42A A49C G80A C85G C95U C103A	≤ -4.2
G25U C87U C93G A138U	≤ -4.2
G25U C85U U101C	-2.41
A26U C32G G86A C105U	≤ -4.2
A26G C36A	≤ -4.2
G25C U61A C87G A138G	≤ -4.2

Variant	polymerase ribozyme fitness (log ratio)
A26G C72U U78G C85G	≤ -4.2
A26C G42A A107C	≤ -4.2
G25C G86A A122U	≤ -4.2
A26U C43U U53A G100C	≤ -4.2
A26G A29C C79A G100A	≤ -4.2
G25U A47G A60G C75A A91U A122U G141C A142G	≤ -4.2
G25A A49G C96G	-3.91
G25C A52G G83C	-3.42
G25U G48A G84A C96G	-4.04
A26C G117C	-2.51
G25C C36U C57A	-3.99
A26C U55A C75A G80C G94A C105A	≤ -4.2
G25A U55A	-2.09
A26G C38A A60U A64C C76U	≤ -4.2
G25C A30U U78C C96G	-3.97
G25U G50U C54A A66U A91C	≤ -4.2
G25C C57A C63A G92C A113C U134A	≤ -4.2
A26U A40U A91U A122U	≤ -4.2
G25U C32U A40U U56A G80C C85A C87A C116G U146G A150U	≤ -4.2
G25U C27U C93U G143U	≤ -4.2
G25U U55A C85A G140C	≤ -4.2

Variant	polymerase ribozyme fitness (log ratio)
A24U U56A U148A	-3.8
A26C C57A A60C G88A U109G A110G C118G	-3.98
A26U A91G G140C C149A	≤ -4.2
G25C U56A U104C A106U A113G U139G U145A	≤ -4.2
A26U C51U G58C	-2.08
A26U	-1.21
A26C	-1.49
A26G	-2.11
A26C C38U G86U U144G	-3.75
A26C C93G U139G G140U	-4.11
G25C A60G G86C C105U	-3.36
A24U U53A U55A G68C C76A C85G	≤ -4.2
A26G A49C A89U G92A U102G G140U	≤ -4.2
G25A C54U C96U A150U	-0.00287
A26C U82A A137G	-2.93
A26U C96U	-1.62
A26C G34C A52C C75A G80C	≤ -4.2
G25A U31A U56A G58A A60C C95U U135A	-1.75
A26C A52G	-1.25
G25U A37C G83A U134C	-2.66
G25C G48C A66G C93A	≤ -4.2

Variant	polymerase ribozyme fitness (log ratio)
A26U C51U A52U C54G G86U C99A A107C C123G	≤ -4.2
A26U C36U U44A C57A G68C C118A U135G	≤ -4.2
A26U C69G A142U	-2.62
G25U C54A G80A	-4.05
A26G G81A C95U	≤ -4.2
A26C C38U C69A U77G G88U	≤ -4.2
A26C U45G C63U C75U G80C G112C U144G	≤ -4.2
A26G G48A	≤ -4.2
A26G U33C C85U	≤ -4.2
A26C C35U U55A C76U C87G G92U A98G	-3.11
A26U A40U A91U A121U	≤ -4.2
A24U U55A C87U G92U	-3.1
G25C G46C C85G C87U G124C C125U U146C	≤ -4.2
G25U G83A	-3.4
A26U A98G U127G	≤ -4.2
G25U C96A A142G	-4.05
G25U A26C A49G U61A C76U U104A C114U A119C	≤ -4.2
A26G C95U C96U	-4.16
A24U U55C C85A	-1.34
A26U C35U U55A C96G G124A	≤ -4.2

— the RNAGym collection of RNA variant scans (doi:10.1073/pnas.2313332121)
